Experiments:
[1] = system: rituximab; experiment: Aggregation of rituximab formulations on storage, % HMWS by size exclusion chromatography; assay type: physicochemical; conditions: trehalose 200 mM, pH 6.5, 40° C.; for effect on the rate of formation of HMWS: compared with background formulation without oligomer; for % HMWS 16 weeks / % HWMS 0 weeks: rituximab 100 mg/ml; for effect on the rate of aggregation: Example 5: rituximab 140 mg/ml; for % HMWS 0 weeks / % HMWS 12 weeks / % HMWS 26 weeks: rituximab 140 mg/ml
Procedure: (§1) Formulations of protein therapeutics, rituximab and certolizumab pegol, were prepared either in the absence or in the presence of various oligomers of ethyleneimine. The following products were used as the starting material: MabThera® (rituximab) and Cimzia® (certolizumab pegol). The compositions of the two products are as follows:
(§2) In order to prepare the formulations for testing, it was necessary to remove the original excipients and replace them with the selected excipients. The following procedure was used to prepare the formulations for testing: Original compositions were removed from the manufacturer's container and dialysed in 3.5 kDa cut-off dialysis cassettes (Thermo Pierce) at 2-8° C., using three changes for a minimum of 4 hours in each, including one overnight incubation.
(§3) The background solutions, containing the new excipients and adjusted to the required pH, were added to the dialysed proteins to achieve the required concentration of excipients and the protein in the final composition. The formulated samples were placed into storage at 40° C. or at 5° C., and stability was tested after a given period of time. The stability of the proteins was tested in compositions containing oligomers of ethyleneimine and compared to a ‘Control formulation’ with identical background in the absence of the oligomers.
(§4) The amount of high molecular weight species is measured using a 300×7.8 mm S3000 (or equivalent) size-exclusion column with a guard column. The mobile phase is potassium phosphate pH 6.5, with a flow rate of 0.4 ml/min, injection volume of 1 μl and detected at 210 and 280 nm. The results are expressed as % high molecular species (HMWS), i.e. sum of all peak areas corresponding to aggregated protein over the sum of all protein-related peaks on the chromatogram. […] However, within a given time-point the samples are tested using the column in the same condition, so the values generated within the time-point represent a very good indication of the relative stability of the protein in the compositions tested.
Rituximab was formulated at 100 mg/ml in the following background solution: EDTA (0.2 mM), methionine (1 mM), histidine (10 mM). The pH was adjusted to 6.5.
Rituximab was formulated at 100 mg/ml in the following background solution: EDTA (0.2 mM), methionine (1 mM), histidine (10 mM), in the presence of arginine (80 mM) as a tonicity modifier. The pH of all formulations was adjusted to 6.5. For comparison, the formulation of commercial liquid rituximab product (‘Original formulation’ also with rituximab at 100 mg/ml) was also included.
Rituximab was formulated at 100 mg/ml in the following background solution: EDTA (0.2 mM), methionine (1 mM) histidine (10 mM) and trehalose (200 mM). The pH was adjusted to 6.5.
Rituximab was formulated at 140 mg/ml in the following background solution: EDTA (0.2 mM), methionine (1 mM), histidine (10 mM) and trehalose (200 mM). The pH was adjusted to 6.5.

[2] = system: Certolizumab pegol; experiment: Aggregation of certolizumab pegol formulations on storage, % HMWS by size exclusion chromatography; assay type: physicochemical; conditions: Certolizumab pegol 100 mg/ml, 40° C.
Procedure: as §1, §2, §3, §4
Certolizumab pegol was formulated at 100 mg/ml in histidine buffer (10 mM, pH 6.0) in the presence of either NaCl (150 mM) or 1,2-propandiol (200 mM) as tonicity modifiers.

[3] = histidine 10 mM pH 6.0, 1,2-propanediol 200 mM, additive 3 mg/ml
[4] = histidine 10 mM pH 6.0, 1,2-propanediol 200 mM, additive 35.9 mg/ml
[5] = histidine 10 mM pH 6.0, NaCl 150 mM, additive 3 mg/ml
[6] = histidine 10 mM pH 6.0, NaCl 150 mM, additive 35.9 mg/ml

| Molecule | effect on the rate of formation of HMWS ([1]; Example 4: rituximab 100 mg/ml) | % HMWS 16 weeks ([1]; additive 0.2 mg/ml) [%] | % HWMS 0 weeks ([1]; additive 0.2 mg/ml) [%] | % HMWS 16 weeks ([1]; additive 1 mg/ml) [%] | % HWMS 0 weeks ([1]; additive 1 mg/ml) [%] | % HMWS 16 weeks ([1]; additive 5 mg/ml) [%] | % HWMS 0 weeks ([1]; additive 5 mg/ml) [%] | effect on the rate of aggregation [1] | % HMWS 0 weeks ([1]; additive 1 mg/ml) [%] | % HMWS 12 weeks ([1]; additive 1 mg/ml) [%] | % HMWS 0 weeks ([1]; additive 5 mg/ml) [%] | % HMWS 12 weeks ([1]; additive 5 mg/ml) [%] | % HMWS 26 weeks ([1]; additive 5 mg/ml) [%] | other results |
| --- | --- | --- | --- | --- | --- | --- | --- | --- | --- | --- | --- | --- | --- | --- |
| 2K mPEG valerate PEI800 [Compound (4), reference compound] | reduced the rate of formation of HMWS in a dose dependent manner | 2.57 | 0.69 | 1.06 | 0.79 | 0.93 | 0.69 | – | – | – | – | – | – | – |
| 5K mPEG Propyl Triethylenetetramine Ethanol [Compound (2)] | – | – | – | – | – | – | – | reduction in the rate of aggregation | 0.40 | 1.17 | 0.35 | 0.97 | 3.60 | % HMWS 0 weeks [2, 3]: 0.64%; % HMWS 8 weeks [2, 3]: 2.02%; % HMWS 0 weeks [2, 4]: 0.81%; % HMWS 8 weeks [2, 4]: 2.47%; % HMWS 0 weeks [2, 5]: 0.66%; % HMWS 8 weeks [2, 5]: 3.32%; % HMWS 0 weeks [2, 6]: 0.79%; % HMWS 8 weeks [2, 6]: 2.39%; % HMWS 0 weeks ([1]; additive 0.2 mg/ml): 0.25%; % HMWS 12 weeks ([1]; additive 0.2 mg/ml): 1.31%; % HMWS 26 weeks ([1]; additive 0.2 mg/ml): 4.79%; % HMWS 26 weeks ([1]; additive 1 mg/ml): 4.44% |
| NCCNCCN [Diethylenetriamine] | considerably reduce the rate of formation of HMWS in a dose dependent manner | 0.94 | 0.81 | 0.70 | 0.70 | 0.67 | 0.79 | considerable, dose-dependent reduction in the aggregation rate | 0.38 | 0.24 | 0.37 | 0.29 | 1.83 | rate of aggregation compared with Original formulation ([1]; Example 4: rituximab 100 mg/ml): lower; % HMWS 0 weeks ([1]; additive 0.02 mg/ml): 0.37%; % HMWS 12 weeks ([1]; additive 0.02 mg/ml): 0.91%; % HMWS 26 weeks ([1]; additive 0.02 mg/ml): 4.09%; % HMWS 0 weeks ([1]; additive 0.1 mg/ml): 0.38%; % HMWS 12 weeks ([1]; additive 0.1 mg/ml): 0.35%; % HMWS 26 weeks ([1]; additive 0.1 mg/ml): 0.89% |

— patent US12016922B2, “Stabilized aqueous antibody compositions” (Arecor Limited, priority 2012, dated 2024)
